± gives the standard deviation of the averaged measurements.
What follows are sequences tested on Saccharomyces cerevisiae (assay: protein stability index of tFT-peptide fusion (C-terminal peptide) (PSI (0-1 scale)); higher = more stable (slower turnover)). Conditions: genetic background: wild type; temperature: 30 C.
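Also: PSI is a weighted mean of sequencing reads over stability bins, variants kept only with over 10 reads, mCherry proximal and sfGFP distal, peptide attached via GGGS linker.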

Row | Sequence | protein stability index
1 | PPSAALPTSPTG | 0.6911 ± 0.0015
2 | PPSFCFFLLPFL | 0.6558 ± 0.0054
3 | PPSHSPRPLSFL | 0.653 ± 0.08
4 | PPSHYPFTPADP | 0.728 ± 0.046
5 | PPSIFELFPSPP | 0.7122 ± 0.0051
6 | PPSLHSRAFTLS | 0.557 ± 0.2
7 | PPSLPAPPPPPA | 0.6655 ± 0.0023
8 | PPSLSGECSPSF | 0.6781 ± 0.0039
9 | PPSLTPPFSPLL | 0.703 ± 0.027
10 | PPSLTSPRHPPT | 0.669 ± 0.022
11 | PPSNASFSSPPH | 0.824 ± 0.035
12 | PPSPAGPLPSPA | 0.686 ± 0.021
13 | PPSPHLPPPPAL | 0.715 ± 0.016
14 | PPSPPAPPAPPH | 0.692 ± 0.038
15 | PPSPPLPPLPPP | 0.653 ± 0.0084
16 | PPSPPLRPPSLC | 0.704 ± 0.024
17 | PPSPPPPPPLHS | 0.676 ± 0.042
18 | PPSPPPTPFPPS | 0.651 ± 0.1
19 | PPSPPPTTPSPP | 0.656 ± 0.035
20 | PPSPPSSHPLLP | 0.679 ± 0.0078
21 | PPSPSPPAPQAS | 0.632 ± 0.05
22 | PPSRPPPPPPSP | 0.702 ± 0.061
23 | PPSSLPRLQCSP | 0.674 ± 0.054
24 | PPSSPHAPTALP | 0.685 ± 0.032
25 | PPSSPTRPSSPL | 0.736 ± 0.051
26 | PPTANPMLPPPF | 0.651 ± 0.055

Row | Sequence | protein stability index
27 | PPTASPPPLSPL | 0.691 ± 0.083
28 | PPTFLLRSAPSL | 0.669 ± 0.043
29 | PPTFRLHCPPAT | 0.72 ± 0.02
30 | PPTLRRGSTFYH | 0.6788 ± 0.0016
31 | PPTNTPTPPSYV | 0.691 ± 0.025
32 | PPTPAAPGLPPA | 0.677 ± 0.035
33 | PPTPPAFPPLLA | 0.662 ± 0.03
34 | PPTPQRRRSPPP | 0.7326 ± 0.0066
35 | PPTPSLPRPPMQ | 0.676 ± 0.014
36 | PPTPSSPRPMAP | 0.818 ± 0.14
37 | PPTPVSRSPPPA | 0.665 ± 0.021
38 | PPTRPPPALIPP | 0.711 ± 0.022
39 | PPTRSLYLLPLI | 0.6983 ± 0.0035
40 | PPVLPVGLPPTP | 0.684 ± 0.035
41 | PPVLTLFMPSYS | 0.7051 ± 0.0043
42 | PPVPPLRPSCPS | 0.684 ± 0.01
43 | PPVSLGCPPGRP | 0.776 ± 0.099
44 | PPVSPFPVLQGR | 0.652 ± 0.048
45 | PPWPPQVALPPT | 0.762 ± 0.068
46 | PPYPLLLRLPPP | 0.618 ± 0.066
47 | PQCSLPLPFTLL | 0.61363 ± 0.00047
48 | PQHLPFPSPAPP | 0.711 ± 0.011
49 | PQILTSRVAIKL | 0.646 ± 0.068
50 | PQLFLENHEFCI | 0.925 ± 0.051
51 | PQLPSRVYPSLP | 0.695 ± 0.027
52 | PQRPRTLPPLTP | 0.7236 ± 0.0015

Row | Sequence | protein stability index
53 | PQTPANDDGDPN | 0.642 ± 0.041
54 | PQVNSNQIRAPD | 0.677 ± 0.021
55 | PQYLSGFDIHNG | 0.728 ± 0.052
56 | PRAPHHRIPEDL | 0.733 ± 0.097
57 | PRDRLIRNHVTR | 0.716 ± 0.086
58 | PRERADPSLPVK | 0.663 ± 0.035
59 | PRFKPSRSTPAD | 0.675 ± 0.031
60 | PRGLFLTRLRPC | 0.64 ± 0.058
61 | PRIPPLRPPPPA | 0.6649 ± 0.0047
62 | PRKVNAHKDTCH | 0.693 ± 0.022
63 | PRLARSASLDSP | 0.731 ± 0.08
64 | PRLLPPDPRHAP | 0.7002 ± 0.0032
65 | PRLPPTDHAGAL | 0.675 ± 0.04
66 | PRLRPFATPNCF | 0.636 ± 0.046
67 | PRPDPAPPAALP | 0.6017 ± 0.0057
68 | PRPGGQGHPNAG | 0.742 ± 0.027
69 | PRPKPSAIPILT | 0.597 ± 0.015
70 | PRPLLPPPPLLA | 0.629 ± 0.083
71 | PRPLPSPPHPRP | 0.71 ± 0.026
72 | PRPLPTGRFPPP | 0.669 ± 0.028
73 | PRPPLPSTPEAA | 0.612 ± 0.024
74 | PRPPLRATASVV | 0.699 ± 0.033
75 | PRPPPSRSFPPP | 0.784 ± 0.13
76 | PRPPTSPPSLHP | 0.7 ± 0.025
77 | PRQACPLPLPHV | 0.655 ± 0.029
78 | PRQGTRKYDKMN | 0.724 ± 0.059

Row | Sequence | protein stability index
79 | PRRAARLLPRPL | 0.693 ± 0.015
80 | PRRARPLALVFH | 0.6 ± 0.033
81 | PRRSSSPPLLSP | 0.784 ± 0.0088
82 | PRSAPPVPPIYP | 0.6502 ± 0.0053
83 | PRSAPSPRRSPA | 0.757 ± 0.034
84 | PRSFPPRPPPPV | 0.726 ± 0.051
85 | PRSLPAGHPSRG | 0.692 ± 0.028
86 | PRSMLIFPSFPF | 0.825 ± 0.042
87 | PRSPPPPPPLPP | 0.626 ± 0.019
88 | PRSPPTPPPAPP | 0.66 ± 0.013
89 | PRSYPPSPPPPS | 0.704 ± 0.042
90 | PRTHPPPPAPCR | 0.6634 ± 0.0054
91 | PRTPRPPSPPAS | 0.739 ± 0.015
92 | PRTRSYTRCGVT | 0.614 ± 0.024
93 | PRYCQIKIISHK | 0.554 ± 0.14
94 | PRYPLLPAHTLI | 0.705 ± 0.029
95 | PSAFPAPPLRCS | 0.686 ± 0.027
96 | PSAPPPPPPSPP | 0.5979 ± 0.005
97 | PSCLGSIRSTPL | 0.657 ± 0.02
98 | PSDPTPSVPPIV | 0.6647 ± 0.001
99 | PSFPPLLSSSSI | 0.763 ± 0.11
100 | PSFVPHLPRPPP | 0.722 ± 0.071
101 | PSHFSPPSAPPP | 0.738 ± 0.055

Source: the supplement of paper PMC10724198
